Tested on: MS2 coat protein
Assay: apparent KD of MS2 coat protein; designed switch direction (-1 OFF switch, 1 ON switch): 1; higher = weaker reporter binding
How it was run: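 Each step of the titration lasted 0.8–1.5 h at the lowest concentration and 10–20 min at the highest. The protein, SNAP-549-labelled MS2 coat protein, went from 0.7 or 1.5 nM doubling to 3 µM over RNA switches transcribed on Illumina chips by stalled E. coli RNA polymerase. Normalised cluster fluorescence was curve-fitted, and the per-design median over clusters is given as apparent KD.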

[1] = input ligand: microRNA oligo, concentration not stated
[2] = Eterna round: R95, input ligand: FMN 200 uM
[3] = Eterna round: R95, input ligand: microRNA oligo, concentration not stated
[4] = Eterna round: R95, input ligand: none

Sequence	apparent KD of MS2 coat protein (input ligand: FMN 200 uM) [nM]	apparent KD of MS2 coat protein [1] [nM]	apparent KD of MS2 coat protein (input ligand: none) [nM]	apparent KD of MS2 coat protein [2] [nM]	apparent KD of MS2 coat protein [3] [nM]	apparent KD of MS2 coat protein [4] [nM]
UUGUUUCGUCAUUAACAUGAGGAUCACCCAUGUAUUGACCCAAAGGAUAUAUAUGUUUGUUUGUAAUAGAAGGUUGAUUGUUGU [JR_SSNG3_Sub091] (Eterna round: R96, puzzle: Same State NG 3)	19.9	16.8	20.6			
GAGUAGUUGAAAGGAUAUUGAUUGUUGUAGGAUCAAGAAGGUUCUAACAUGAGGAUCACCCAUGUAGGACUAUUCCUGUGUAUC [Parity 86 - Jieux - Same State NG 1] (Eterna round: R96, puzzle: Same State NG 1)	8.27	8.09	11.9			
UGCUAUUGUAUAUUGGUGCAAGCUUAUUGACAUGAGGAUCACCCAUGUACUCGUCUUAUGUGCAGUCCGUAGACUGC [JL-shm-2.25 Brourd mod] (puzzle: Sensor for hsa-mir-208a)				72	13.9	78.7
UUUAGUUGCGCGCAGGAUAUGUAUUAAUAUACAUGAGGAUCACCCAUGUGAGACCAAAUAGGUCUACAGAAGGGCGAAUCGCGAC [Laonerce - 29] (puzzle: Same State 2)				29.4	234	715
GUUACAUGAGGAUCACCCAUGUAUGUGUGGGAGUAAGUGUCUUAGGAUAUCUAUUAUUGAAAUUAAGAGAAGGAAGAUUGUUGU [JMF's solution 19] (Eterna round: R96, puzzle: Same State NG 3)		98.6				
UGCUAUAGUAUAUUGGUGCAAGCUUUUUGACAUGAGGAUCACCCAUGUACUCGUCUUAAGCGCAGUCCGUAGACUGC (puzzle: Sensor for hsa-mir-208a)				84.5	13.8	89.9
GGUAGGUUACUACCAACACAUGAGGAUCACCCAUGUUAUGGGAAGGAUAUGGUACCUAUUUGGUACCAGAAGGUCCAGUUAAUU [Fiskers NG3ss - 16] (Eterna round: R96, puzzle: Same State NG 3)	77.6	206	449			
GGGAGACAUGAGGAUCACCCAUGUGGGAGGGAACGAGGAUAUGUAAGGAGAGAGAAUAGAACAGAAGGCGUAGGUG [JR_SS1_Sub022] (puzzle: Same State 1)				50	50	61.9
CUGAGAAGUCAAGGAUAUCACGUCGAUUAGACGUGAGAAGGUGAUCAUUACAUGAGGAUCACCCAUGUGUUACAUGGAGCUCAG [Brourd's SSNG1/1-A2 mod 6] (Eterna round: R96, puzzle: Same State NG 1)	703	124	938			
AAGAACAAGCGAAAGGCCCGUCUUAUAUAACAUGAGGAUCACCCAUGUAAGGUGAAAGUUAGAGAGUGGAGGUUGAA [JR_SHM208A_Sub047] (puzzle: Sensor for hsa-mir-208a)				284	282	340
GGAGCCGGCCUAGGAUAUUUCAUAUUUAAACAUGAGGAUCACCCAUGUAGGCCAGAAGGCCUUGGGAAGAAGGAGGUCGGCUCC [Loop Effect - U25,U26,U27] (Eterna round: R96, puzzle: Same State NG 2)		57.4				
AGCUAUUACGAAGGAUAUUGUAACAUGAGGAUCACCCAUGUUUACAUGAUUAAUUGUGAUCACGUCGAGAAGGUUGUACUAACA [SameState NG2 #33] (Eterna round: R96, puzzle: Same State NG 2)	17.5	16.5	19			
GCGAAAGCGGUAGGAUAUCUAGGAUAUGGGAAGGACUAAGUCUGGAGGUCACCUCACCCAGAAGGAGAGAAGGACACCGAAAGG [pwkr ssNG2 2FMN + F9.1] (Eterna round: R96, puzzle: Same State NG 2)	534	204	42.6			
AUAAAACAUGAGGAUCACCCAUGUCAACAAAGUCUAGGAUAUGGGCAAAUAAAAUAAGAACCAGAAGGCGAAUAAU [salish99_ss1_r3_051] (puzzle: Same State 1)				167	177	178
GUAGCAUACCGAGGAUAUUCAUAUUAUAACAUGAGGAUCACCCAUGUUGGCCGAUUACGGCCUUGGGAGAAGGCGGAAUGCUAC [Xeonanis - 20 Mod18] (Eterna round: R96, puzzle: Same State NG 2)	15.8	74.1	84.3			
UCUUGGUUUUUGCUCGUUUUUUGUGUUGAACAUGAGGAUCACCCAUGUAUUGUACGGUCCAGUUUAAUAAUGGUCCA [JMF 6] (puzzle: Sensor for hsa-mir-208a)				25.9	14.4	26

Sequence	apparent KD of MS2 coat protein (input ligand: FMN 200 uM) [nM]	apparent KD of MS2 coat protein [1] [nM]	apparent KD of MS2 coat protein (input ligand: none) [nM]	apparent KD of MS2 coat protein [2] [nM]	apparent KD of MS2 coat protein [3] [nM]	apparent KD of MS2 coat protein [4] [nM]
GUUAACUUGAGAGGAUAUGUAGAGGAUCACCCUACAGAAGGCUCUUUGGAGAGGAUAUGUAGAGGAUCACCCUACAGAAGGCUC [pwkr ssNG DX.6] (Eterna round: R96, puzzle: Same State NG 1)	56.5	33.7	25.9			
GGUCGGUCCUACAUGAGGAUCACCCAUGUUCCGGAAACGGCAUAGGAUAUCUGUCCGAAAAGGUCAGAGAAGGGUGAACCGACC [Fiskers NG3ss - 73] (Eterna round: R96, puzzle: Same State NG 3)	153	118	189			
GCUACCAUUGAAGCCAACAUGAGGAUCACCCAUGUAUGUUGGUAGGAUAUCGUUUGCAAAGCAAACGAGAAGGGCUAAGGUAGC [Mat - Same State NG 3 - JL Mod - D79] (Eterna round: R96, puzzle: Same State NG 3)	83.5	42.1	74.4			
GGUCCAGCCUGAGCUGGACAAAAGCAUGUACAUGAGGAUCACCCAUGUCAUGUACAAGCUUUUUGCUCGUUUUAAAA [JL mod - D87 - 14] (puzzle: Sensor for hsa-mir-208a)				527	14.5	576
AUUAAACAUGAGGAUCACCCAUGUCAACAAAGUCGAGGAUAUGGGCAAAUAAAAUAAGAACCAGAAGGCGACUAAU [salish99_ss1_r3_071] (puzzle: Same State 1)					22.3	
AUCCUACAUGAGGAUCACCCAUGUGACGCCUCGAUAGGAUAUGCGUGUGCCUUGGCGCAUGCAGAAGGAUUGUUGC [JL Aveso mod 7] (Eterna round: R96, puzzle: Same State 1)		20.3				
UUUAUACAUGAGGAUCACCCAUGUCAAUGUAGUCGAGGAUAUGGGCAGCCGUGAGGCGUACUAGAAGGCGAAGAGG [JL-ss1-3.09 ViennaUCT mod] (puzzle: Same State 1)					117	
AUUAUUUAUGCAGGAUAUGAUUAACAUGAGGAUCACCCAUGUGGUGUUGUGAGUAAGGAGAGUGAUCAGAAGGGCAUUGUUUUU [JMF's solution 46] (Eterna round: R96, puzzle: Same State NG 2)	1450	473	475			
GGUCGGACUCACAUGAGGAUCACCCAUGUUGCGGAAACGCGAUAGGAUAUCUGUCCGAAAAGGUCAGAGAAGGGUCAACCGACC [Fiskers NG3ss - 64] (Eterna round: R96, puzzle: Same State NG 3)	447	486	567			
UUGAAGAAUUAAGGAUAUCGAGUCGUCUAAUUAAACAUGAGGAUCACCCAUGUGGGUUGCGGUAUCGAGAAGGUAAAUUACUAG [JL JR Sub099 mod 3] (Eterna round: R96, puzzle: Same State NG 2)	25.2	22.8	37			
UAAAGAUCGCGAGGAUAUCGCGAGGAUCACCCGUGAGAAGGCGCAGAGCCGAGGAUCACCCGGCUGAUCCUGAGGAGGAGGUCA (Eterna round: R96, puzzle: Same State NG 1)	204	213	302			
UGUUAACAUGAGGAUCACCCAUGUCAAAUGAAUCGAGGAUAUGGGAAGUAAUAAGAUAAACUAGAAGGCGAAGUUG [Altered State 1-1 - Jieux - Same State 1] (puzzle: Same State 1)				358	106	195
CGCGCUCCGGUAGGAUAUGAGGUGCCGUAGGGACCCGCCUACGGACAUGAGGAUCACCCAUGUCCUCAGAAGGACCGGGCGUGA [Soenonorma] (Eterna round: R96, puzzle: Same State NG 2)	15.1	29.6	35.5			
AUAAAACAUGAGGAUCACCCAUGUCAACAAAGUCGAGGAUAUGGGCAAAUUAAAUAAGAACCAGAAGGCGAAUAAU [salish99_ss1_r3_024] (puzzle: Same State 1)				33.3	184	232
GCUAGAAUUAAAGCCAACAUGAGGAUCACCCAUGUAUGUUGGUAGGAUAUCGUUUGCAAAGCAAACGAGAAGGGCUAAACUAGC [Mat - Same State NG 3 - JL Mod - D16] (Eterna round: R96, puzzle: Same State NG 3)	97.9	80.2	93.8			
AUCAUAGUAGCGCAGGAUAUCCAGGUCGAGACAUGAGGAUCACCCAUGUCAGCAGGAGGACCAGAGGAGAAGGGUGAGAAAAUAA [Bimaan] (puzzle: Same State 2)				12.5	14.2	16.7

— the supplement of paper PMC9170038
